Molecular target: T1, YgiT (E. coli, UniProt Q46864 1-131)
T1 construct: YgiT with no tag named, co-expressed with H-MqsR from pET-MqsRYgiT (the operon cloned in pET28a) or induced from pBAD-YgiT in cells; also called YgiT of the H-MqsRYgiT complex; YgiT expressed from pBAD-YgiT
T1 sequence: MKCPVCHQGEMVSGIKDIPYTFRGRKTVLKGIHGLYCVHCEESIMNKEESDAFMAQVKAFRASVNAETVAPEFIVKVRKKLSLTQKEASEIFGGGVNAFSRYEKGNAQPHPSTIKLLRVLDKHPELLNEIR
Experiment: co-expression and co-purification on Ni-NTA agarose through the tag of H-MqsR

B1: N-terminal histidine-tagged MqsR (enzyme)
chain: MEKRTPHTRLSQVKKLVNAGQVRTTRSALLNADELGLDFDGMCNVIIGLSESDFYKSMTTYSDHTIWQDVYRPRLVTGQVYLKITVIHDVLIVSFKEK
notes: also called H-MqsR; His-MqsR; not shown: N-terminal histidine tag from pET28a
B1: binds.
